{"source": "patent US20210171647A1", "about": "(WUXI BIOLOGICS SHANGHAI, published 2021)", "key": {"human CD40 ECD": {"biological_target": "T1, human CD40 ECD (human, UniProt P25942 21-193)", "T1 construct": "extracellular domain", "T1 sequence (P25942 21-193)": "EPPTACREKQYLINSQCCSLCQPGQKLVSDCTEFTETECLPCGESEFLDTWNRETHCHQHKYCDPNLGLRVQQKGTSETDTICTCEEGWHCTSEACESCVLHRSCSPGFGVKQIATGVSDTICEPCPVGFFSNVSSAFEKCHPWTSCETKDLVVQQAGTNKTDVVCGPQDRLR", "test": "ELISA on coated ECD, one antibody concentration (not given)"}, "human 4-1BB (CD137) ECD": {"biological_target": "T2, human 4-1BB (CD137) ECD (human, UniProt Q07011 24-186)", "T2 construct": "extracellular domain", "T2 sequence (Q07011 24-186)": "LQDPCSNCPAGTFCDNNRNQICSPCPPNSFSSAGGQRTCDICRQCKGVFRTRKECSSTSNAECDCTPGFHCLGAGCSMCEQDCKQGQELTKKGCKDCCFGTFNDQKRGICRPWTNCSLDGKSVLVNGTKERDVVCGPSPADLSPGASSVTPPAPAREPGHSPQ", "test": "ELISA on coated ECD, one antibody concentration (not given)"}, "human CD271 ECD": {"biological_target": "T3, human CD271 ECD (human, UniProt P08138 29-250)", "T3 construct": "extracellular domain", "T3 sequence (looked up)": "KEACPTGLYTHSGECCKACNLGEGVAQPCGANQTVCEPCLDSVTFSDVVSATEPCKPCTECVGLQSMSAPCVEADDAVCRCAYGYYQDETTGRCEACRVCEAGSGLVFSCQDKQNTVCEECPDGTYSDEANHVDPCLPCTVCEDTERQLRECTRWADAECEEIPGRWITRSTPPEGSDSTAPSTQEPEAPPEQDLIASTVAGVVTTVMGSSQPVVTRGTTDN", "test": "ELISA on coated ECD, one antibody concentration (not given)"}, "[1]": {"biological_target": "T4, human OX40 extracellular domain (ECD) protein (human, UniProt P43489 29-214)", "T4 construct": "extracellular domain; also called human OX40 ECD; human OX40 protein; not shown: human Fc or His tag", "T4 sequence (looked up)": "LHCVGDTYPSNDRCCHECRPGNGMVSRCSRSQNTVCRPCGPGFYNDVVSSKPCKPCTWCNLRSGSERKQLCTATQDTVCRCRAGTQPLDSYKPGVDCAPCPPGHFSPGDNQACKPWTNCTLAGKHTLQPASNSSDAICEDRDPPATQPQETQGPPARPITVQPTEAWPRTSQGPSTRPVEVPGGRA", "test": "SPR, Biacore T200, antibody captured, OX40 as analyte"}, "[2]": {"biological_target": "T5, human OX40, full-length, on cells (human, UniProt P43489 29-277)", "T5 construct": "whole, on cells; also called hPro1; cell surface human OX40", "T5 sequence (looked up)": "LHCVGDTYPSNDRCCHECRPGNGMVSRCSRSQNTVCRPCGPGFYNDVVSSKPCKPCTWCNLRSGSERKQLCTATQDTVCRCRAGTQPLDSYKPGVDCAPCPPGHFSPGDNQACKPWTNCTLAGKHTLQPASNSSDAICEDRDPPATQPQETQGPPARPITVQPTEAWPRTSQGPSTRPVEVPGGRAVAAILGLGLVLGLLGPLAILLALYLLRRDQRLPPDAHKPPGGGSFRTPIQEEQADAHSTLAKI", "test": "flow cytometry on human OX40 transfected CHO-K1 cells", "experimental": "(§1) CHO-K 1 cells expressing human OX40 were transferred in to 96-well U-bottom plates (Corning) at a density of 5×10⁴ cells/mL. Testing antibodies were 1:2 serially diluted in wash buffer (1×PBS/1% BSA) and incubated with cells at 4° C. for 1 h. The secondary antibody goat anti-human IgG Fc FITC (3.2 moles FITC per mole IgG, Jackson Immunoresearch Lab) was added and incubated with cells at 4° C. in the dark for half an hour. The cells were then washed once, resuspended in 1×PBS/1% BSA and analyzed by flow cytometry (BD). Fluorescence intensity was converted to bound molecules/cell based on the quantitative beads Quantum™ MESF Kits (Bangs Laboratories, Inc.). The KD value of each antibody was calculated using Graphpad Prism5."}, "[3]": {"biological_target": "T4, human OX40 extracellular domain (ECD) …", "test": "competition ELISA: human OX40 ECD coated, antibody titrated in a mix with a constant concentration of OX40L, bound OX40L detected at OD450", "experimental": "Briefly, plates (Nunc) were coated with human OX40 ECD at 1 μg/mL overnight at 4° C. […] After washing, TMB substrate was added and the interaction was stopped by 2M HCl."}, "[4]": {"biological_target": "T5, human OX40, full-length, on cells", "test": "flow cytometry, CHO-K1 cells expressing human OX40, MESF beads", "experimental": "as §1"}, "[5]": {"biological_target": "T5, human OX40, full-length, on cells", "test": "FACS, transfected 293F cells, antibody 1 ug/mL", "experimental": "(§2) Binding of antibodies to chimeric OX40 variants was analyzed by flow cytometry. […] Cells were analyzed using flow cytometer."}, "[6]": {"biological_target": "T6, mouse OX40 (mPro1) on transfected 293F cells (mouse, UniProt P47741 20-272)", "T6 construct": "whole, on cells", "T6 sequence (looked up)": "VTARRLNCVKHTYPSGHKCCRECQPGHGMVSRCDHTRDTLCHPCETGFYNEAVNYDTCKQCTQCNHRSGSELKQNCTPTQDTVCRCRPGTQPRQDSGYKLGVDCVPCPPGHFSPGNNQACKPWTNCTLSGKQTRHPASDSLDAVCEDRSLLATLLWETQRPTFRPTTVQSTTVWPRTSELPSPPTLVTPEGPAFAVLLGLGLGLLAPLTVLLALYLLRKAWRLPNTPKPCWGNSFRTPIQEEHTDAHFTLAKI", "test": "FACS, transfected 293F cells, antibody 1 ug/mL", "experimental": "as §2"}}}
{"binder": "1.134.9-u1-IgG1L (antibody, V domains shown, fully human IgG1, lambda) VH: QVQLQESGPGLVKPSGTLSLTCAVSGGSISSYNWWSWVRQPPGKGLEWIGEIYHGGNTNYNPSLKSRVTMSVDNSKNQFSLKLSSVTAADTAVYYCARAPGDWGGSPYFDFWGQGTLVTVSS VL: SSELTQDPAVSVALGQTVRITCQGDNLRTYYASWYQQKPGQAPILLIYGRNKRPSGIPDRFSGSSSGNTASLTITGAQAEDEAAYYCNSRDSSGNPVVFGGGTKLTVL", "values": [{"measurement": "binding result", "setting": "human CD40 ECD", "result": "no binding"}, {"measurement": "binding result", "setting": "human 4-1BB (CD137) ECD", "result": "no binding"}, {"measurement": "binding result", "setting": "human CD271 ECD", "result": "no binding"}, {"measurement": "Kd", "setting": "[1]", "result": 0.179, "unit": "nM"}, {"measurement": "koff", "setting": "[1]", "result": "3.7e-05", "unit": "s⁻¹"}, {"measurement": "kon", "setting": "[1]", "result": 207000, "unit": "M⁻¹ s⁻¹"}, {"measurement": "EC50 (read off the curve)", "setting": "[2]", "result": "~1", "unit": "nM"}, {"measurement": "IC50 (read off the curve)", "setting": "[3]", "result": "~1", "unit": "nM"}, {"measurement": "Kd", "setting": "[4]", "result": 0.53, "unit": "nM"}, {"measurement": "MFI", "setting": "[5]", "result": 9160}, {"measurement": "PE + %", "setting": "[5]", "result": 85.2, "unit": "%"}, {"measurement": "MFI", "setting": "[6]", "result": 44.4}, {"measurement": "PE + %", "setting": "[6]", "result": 0.937, "unit": "%"}]}
